Holding throughout (format): biochemical
The nature of series [1]: 2-hydroxyadipate dehydrogenase activity of crude bacterial lysates expressing ScHIDH mutants. The conditions noted are these: 100 μM NADH substrate. As for the experimental part:
To obtain crude lysates, 0.5 mL of starter cultures generated as described above were added to 4.5 mL LB-Amp, shaken for 2 h, and shaken for an additional 2 h after induction with 1 mM IPTG. Pellets from these cultures were harvested by centrifugation at 4500×g at 4° C. These pellets were resuspended into 500 μL of Buffer A (0.2% Triton-X 100, 1 mM PMSF, 0.5 mM EDTA, 10 mM Tris, pH 7.5) on ice and sonicated for 6-cycles of 15 seconds each on ice on a Sonifer 250 (Branson). This was then spun down at 13,000×g at 4° C. for 15 min and the cleared lysates were normalized with additional lysis buffer to 700 ng/4 and stored at −80° C. as aliquots. Protein concentrations were determined using the BioRad Protein Assay reagent according to the manufacturer's instructions.
(§1) NADH, 2-oxoadipate, 2-oxoglutarate, 2-heptandioate, and MgCl2 were from Sigma. Standard reaction mixes contained 15 mM 2-oxoadipate, 100 μM NADH, and a reaction buffer with final concentrations of 20 mM MgCl2 and 500 mM HEPES, pH 7.3. NADH oxidation was monitored by the decrease in fluorescence with excitation of 340 nm and emission of 450 nm on a PolarSTAR Optima plate reader (BMG Labtech). Fluorescence monitored reactions were carried out in 10-μL volumes in a 384-well black microplate (Greiner 788076) covered with clear optical film. The levels of fluorescence were converted to NADH concentrations based on standards of NADH in reaction buffer containing BSA. Reactions with high amounts of NADH were monitored by the UV absorbance of NADH at 340 nm in 40-μL reaction volumes in clear 96-well plates.
(§2) Reaction rates are NADH oxidation per unit time per unit of purified enzyme or crude lysate and 1 Unit (U) is 1 μmolNADH min^−1 mgenzyme^−1. Rates are initial rates calculated by least squares linear regression on the first 10 minutes of the reaction. For KM determination, concentrations of substrate/cofactors at least 5×-higher than the KM were used, while the species of interest was varied in concentration; substrate/cofactor concentrations: 500 μM NADH; 15 mM 2-oxoadipate; 20 mM MgCl2. Reported α-hydroxyadipate (2-hydroxy adpic acid) Vmax values were obtained from 2-oxoadipate KM determination experiments. Michaelis-Menten KM and Vmax parameters were estimated by fitting data to a curve using nonlinear regression in GraphPad Prism 5.0 (GraphPad Software, La Jolla, Calif.).

A short description of series [2]: NADH oxidation rate of purified HIDH enzymes with 2-oxoadipate (fluorescence / UV 340 nm). The settings on record: 100 μM NADH. As for the experimental part: as §1, §2
Assays were performed with 40 ng/μL enzyme, 15 mM 2-oxoadipate, 100 μM NADH, 20 mM MgCl2 and 100 mM HEPES, pH 7.3 in 10 or 20 μL volumes in 384-well black microplates. NADH concentration was monitored by the decrease in fluorescence (excitation wavelength: 340 nm; emission wavelength: 450 nm) on a fluorescent plate reader. The fluorescence intensities were converted to NADH concentrations based on NADH standards. Reactions with high amounts of NADH (>300 μM) were monitored by the UV absorbance of NADH at 340 nm in a 40 μL reaction volume in a clear 96-well plate on the same plate reader. Reactions with ScHIDH were carried out at 25° C. and reactions with TtHIDH were carried out at 45° C. Reported rates are initial rates from the first 10 minutes of reaction. For KM determination, concentrations of substrate at least 5×-higher than the KM were used (for NADH, 500 μM; for 2-oxoadipate, 15 mM) while the substrate of interest was varied in concentration. KM and Vmax were estimated by fitting data to equation (1) using nonlinear regression, where x is substrate concentration and y is the rate. y=Vmax·x/KM+x (1) Rate data for ScHIDH-R143C, -R143H, and -R143K are summarized in Table 3.

Series [3] is described as follows: NADH oxidation with 2-oxoadipate plus CO2 added as NaHCO3 (reductive carboxylation). The method, then:
as §1, §2

The nature of series [4]: Enantiospecific LC-MS/MS quantification of (R)- and (S)-2-hydroxyadipate product. The settings on record: TtHIDH, 2 h. The method, then:
Quantitative, enantiospecific LC-MS/MS was performed based on the procedure described for 2-hydroxyglutarate. Jin et al., PLoS one 6, e16812: 1-8 (2011); Struys, et al., Clin. Chem. 50: 1391-1395 (2004). To 20 μL of reaction mix, 2 μL of 130 μg/mL of a racemic mixture of [3,3,4,4-^2H4]-2-hydroxyglutarate (internal standard) in water was added and the mixture dried by vacuum centrifuge (50° C., 15 min). The dry residue was treated with 50 mg/mL freshly prepared diacetyl-L-tartaric anhydride (Sigma) in dichloromethane/glacial acetic acid (4:1 by volume) and heated (75° C., 30 min). After drying (50° C., 15 min) the residue was dissolved in 100 μL of LC mobile phase A (see below) for analysis. An Agilent 1200 series HPLC (Santa Clara, Calif.) was used for liquid chromatography (LC) and a Sciex/Applied Biosystems API 3200 QTrap (Carlsbad, Calif.) was used for triple quadrupole mass spectrometry (MS/MS). Mobile phase A: water, 3% acetonitrile, 280 μL ammonium hydroxide (^˜25%), pH adjusted to 3.6 with formic acid (^˜98%). Mobile phase B: methanol. Analytical column: Kinetex C-18, 150×4.6 mm, 2.6 μm, and SafeGuard C-18 4×3 mm guard-column from Phenomenex (Torrance, Calif.). Column temperature: 45° C. Elution gradient at 1 mL/min flow rate: 0-1 min 0% B, 1-2 min 0-100% B, 2-3.5 min 100% B, 3.5-4 min 100-0% B, 4-10 min 0% B. Injection volume: 10 μL. Q1/Q3 (m/z) transitions were monitored: 377/161, 2-hydroxyadipate (2HA) and 367/151, [3,3,4,4-^2H4]-2-hydroxyglutarate (2HG-d4). To calibrate, 0, 0.16, 0.54, 1.8, 6, and 20 μg/mL 2-hydroxyadipate (Sigma), synthesized as described above, was analyzed in reaction buffer. (R)- and (S)-enantiomers were discriminated based on time of elution from the HPLC column, using the relative elution time for (R)-2-hydroxyglutarate compared to the racemic mixture of 2-hydroxyglutarate described previously to identify the (R)-2-hydroxyadipate enantiomer. Jin et al., PLoS one 6, e16812: 1-8 (2011). Standards were analyzed alongside experimental samples. Accuracy acceptance criteria were 85% for all but the lowest level (0.16 μg/mL, 80%).

Results on five molecules are retold here after patent publication US8691960B2, “Oxidoreductases for enantioselective reactions” (Duke University, priority 2012, dated 2014).

Entries after “also recorded” stand apart in the source; their conditions may differ.

B1: ScHIDH-V111D: Saccharomyces cerevisiae homoisocitrate dehydrogenase V111D mutant (protein)
chain: MFRSVATRLSACRGLASNAARKSLTIGLIPGDGIGKEVIPAGKQVLENLNSKHGLSFNFIDLYAGFQTFQETGKALPDETVKVLKEQCQGALFGAVQSPTTKVEGYSSPIDALRREMGLFANVRPVKSVEGEKGKPIDMVIVRENTEDLYIKIEKTYIDKATGTRVADATKRISEIATRRIATIALDIALKRLQTRGQATLTVTHKSNVLSQSDGLFREICKEVYESNKDKYGQIKYNEQIVDSMVYRLFREPQCFDVIVAPNLYGDILSDGAAALVGSLGVVPSANVGPEIVIGEPCHGSAPDIAGKGIANPIATIRSTALMLEFLGHNEAAQDIYKAVDANLREGSIKTPDLGGKASTQQVVDDVLSRL
modifications: ScHIDH V111D polypeptide
notes: Saccharomyces cerevisiae homoisocitrate dehydrogenase V111D mutant
In the case of B1, the “2-hydroxyadipate dehydrogenase activity in crude bacterial lysates” value (from here on “2-hydroxyadipate dehydrogenase activity”) in series [1] was “did not demonstrate 2-hydroxyadipate dehydrogenase activity”.

B2: ScHIDH-R114Q: Saccharomyces cerevisiae homoisocitrate dehydrogenase R114Q mutant (protein)
chain: MFRSVATRLSACRGLASNAARKSLTIGLIPGDGIGKEVIPAGKQVLENLNSKHGLSFNFIDLYAGFQTFQETGKALPDETVKVLKEQCQGALFGAVQSPTTKVEGYSSPIVALQREMGLFANVRPVKSVEGEKGKPIDMVIVRENTEDLYIKIEKTYIDKATGTRVADATKRISEIATRRIATIALDIALKRLQTRGQATLTVTHKSNVLSQSDGLFREICKEVYESNKDKYGQIKYNEQIVDSMVYRLFREPQCFDVIVAPNLYGDILSDGAAALVGSLGVVPSANVGPEIVIGEPCHGSAPDIAGKGIANPIATIRSTALMLEFLGHNEAAQDIYKAVDANLREGSIKTPDLGGKASTQQVVDDVLSRL
modifications: ScHIDH R114Q polypeptide
notes: Saccharomyces cerevisiae homoisocitrate dehydrogenase R114Q mutant
In the case of B2, in series [1], the “2-hydroxyadipate dehydrogenase activity” value was “did not demonstrate 2-hydroxyadipate dehydrogenase activity”.

B3: ScHIDH-R115Q: Saccharomyces cerevisiae homoisocitrate dehydrogenase R115Q mutant (protein)
chain: MFRSVATRLSACRGLASNAARKSLTIGLIPGDGIGKEVIPAGKQVLENLNSKHGLSFNFIDLYAGFQTFQETGKALPDETVKVLKEQCQGALFGAVQSPTTKVEGYSSPIVALRQEMGLFANVRPVKSVEGEKGKPIDMVIVRENTEDLYIKIEKTYIDKATGTRVADATKRISEIATRRIATIALDIALKRLQTRGQATLTVTHKSNVLSQSDGLFREICKEVYESNKDKYGQIKYNEQIVDSMVYRLFREPQCFDVIVAPNLYGDILSDGAAALVGSLGVVPSANVGPEIVIGEPCHGSAPDIAGKGIANPIATIRSTALMLEFLGHNEAAQDIYKAVDANLREGSIKTPDLGGKASTQQVVDDVLSRL
modifications: ScHIDH R115Q polypeptide
notes: Saccharomyces cerevisiae homoisocitrate dehydrogenase R115Q mutant
Take B3: the “NADH oxidation by purified enzyme in the presence of 2-oxoadipate” value in series [2] (standard reaction conditions, 10 mM 2-oxoadipate, 20 mM MgCl2) is reported as “behaved essentially the same as wild type; also recorded: did not oxidize NADH”. Besides, in series [3] (purified enzyme, 15 mM 2-oxoadipate, 100 μM NADH, 0-42 mM NaHCO3), the “NADH oxidation when CO2 was provided as NaHCO3” value was “did oxidize NADH”. In addition, the “2-hydroxyadipate dehydrogenase activity” value in series [1] is “did not demonstrate 2-hydroxyadipate dehydrogenase activity”.

B4: ScHIDH-Y150D: Saccharomyces cerevisiae homoisocitrate dehydrogenase Y150D mutant (protein)
chain: MFRSVATRLSACRGLASNAARKSLTIGLIPGDGIGKEVIPAGKQVLENLNSKHGLSFNFIDLYAGFQTFQETGKALPDETVKVLKEQCQGALFGAVQSPTTKVEGYSSPIVALRREMGLFANVRPVKSVEGEKGKPIDMVIVRENTEDLDIKIEKTYIDKATGTRVADATKRISEIATRRIATIALDIALKRLQTRGQATLTVTHKSNVLSQSDGLFREICKEVYESNKDKYGQIKYNEQIVDSMVYRLFREPQCFDVIVAPNLYGDILSDGAAALVGSLGVVPSANVGPEIVIGEPCHGSAPDIAGKGIANPIATIRSTALMLEFLGHNEAAQDIYKAVDANLREGSIKTPDLGGKASTQQVVDDVLSRL
modifications: ScHIDH Y150D polypeptide
notes: Saccharomyces cerevisiae homoisocitrate dehydrogenase Y150D mutant
B4: in series [1], the “2-hydroxyadipate dehydrogenase activity” value was “did not demonstrate 2-hydroxyadipate dehydrogenase activity”.

B5: TtHIDH-R118H: Thermus thermophilus homoisocitrate dehydrogenase R118H mutant (protein)
chain: MAYRICLIEGDGIGHEVIPAARRVLEATGLPLEFVEAEAGWETFERRGTSVPEETVEKILSCHATLFGAATSPTRKVPGFFGAIRYLRRRLDLYANVRPAKSRPVPGSRPGVDLVIVHENTEGLYVEQERRYLDVAIADAVISKKASERIGRAALRIAEGRPRKTLHIAHKANVLPLTQGLFLDTVKEVAKDFPLVNVQDIIVDNCAMQLVMRPERFDVIVTTNLLGDILSDLAAGLVGGLGLAPSGNIGDTTAVFEPVHGSAPDIAGKGIANPTAAILSAAMMLDYLGEKEAAKRVEKAVDLVLERGPRTPDLGGDATTEAFTEAVVEALKSL
modifications: TtHIDH R118H polypeptide
notes: Thermus thermophilus homoisocitrate dehydrogenase R118H mutant
On to B5, for which, in series [2] (TtHIDH, 15 mM 2-oxoadipate, 45° C., 2 h), the “decrease of NADH concentration after 2 h” value stood at 61.3 µM. The “initial rate of NADH oxidation” value in series [2] (TtHIDH, 15 mM 2-oxoadipate, 45° C., U = μmol NADH min^−1 mg^−1) was 0.058±0.0031 U. Besides, in series [3] (TtHIDH, 2-oxoadipate and NADH, CO2 added as NaHCO3), the “rate of NADH consumption with NaHCO3 added” value came out at 0.059 U. Also, the “increase of (R)-2-hydroxyadipate concentration after 2 h” value in series [4] (100 μM NADH, 15 mM 2-oxoadipate, 45° C.) is 61.3 µM. Also, in series [4] (same reaction), the “increase of (S)-2-hydroxyadipate” value was “No increase”.
